Three molecules from PMC9949351, “Chromatin localization of nucleophosmin organizes ribosome biogenesis” (Molecular cell, 2022) can be followed below.

The labels stand for the following.
B1: Fkbp41 (natural protein, S. pombe, UniProt Q10175 1-362, looked up)
chain: MSKEETLYSVKVDQERVPLFDEDFYKGFRSELSVRFTMAALDPRAKSNDAVTVNVITRLEHPEEDGEESDEELFQEEKFTLCTLKKGSVYQQPIDIIFSPGEEVFFERVGGDIPVYLSGTCIITNIPEEEDSSDLENDFLYGADEFSSDEEEMDDISVTSSEEEEEENGARIEELNSDEEDAEQAEEEILEKPVPKDEVAEKHSKDKLKKEEKEKKTAVDVSDSVNGKKRKTEPAGEGEQTEKKSKSTKTYPKQVLEGNVTVQDKVKGDGPAAKRKKRVSMRYIGRLTNGKVFDKNITGKPFTFNLGLEEVIKGWDVGIVGMQVGGERTIHIPAAMAYGSKRLPGIPANSDLVFDVKLLAVN
notes: Fkbp41, S. pombe, SPAC27F1.06c; cloned into a pETDuet vector behind 6xHis-SUMO and an HRV-3C site; also called nucleophosmin-like protein Fkbp41; SPAC27F1.06c; source: E. coli Rosetta (DE3), purified (Ni Sepharose, tag removed, Q ion exchange, at times SEC); not shown: 6xHis, N-terminal, cleaved; SUMO, N-terminal, cleaved
B2: Fkbp39 (natural protein, S. pombe, UniProt O74191 1-361, looked up)
chain: MSLPIAVYSLSVKGKDVPAVEESTDASIHLTMASIDAGEKSNKPTTLLVKVRPRIPVEDEDDEELDEQMQELLEESQREFVLCTLKPGSLYQQPLNLTITPGDEVFFSASGDATIHLSGNFLVDEEDEEEEESDEDYDLSPTEEDLVETVSGDEESEEESESEDNSASEEDELDSAPAKKAQVKKKRTKDESEQEEAASPKKNNTKKQKVEGTPVKEKKVAFAEKLEQGPTGPAAKKEKQQASSNAPSSPKTRTLKGGVVVTDVKTGSGASATNGKKVEMRYIGKLENGKVFDKNTKGKPFAFILGRGEVIRGWDVGVAGMQEGGERKITIPAPMAYGNQSIPGIPKNSTLVFEVKLVRVH
notes: Fkbp39, S. pombe, SPBC1347.02; cloned into a pETDuet vector behind 6xHis-SUMO and an HRV-3C site; also called nucleophosmin-like protein Fkbp39; SPBC1347.02; source: E. coli Rosetta, purified (Ni Sepharose, tag removed, SP ion exchange, at times SEC); not shown: 6xHis, N-terminal, cleaved; SUMO, N-terminal, cleaved
B3: 6xHis-SUMO-Fkbp39 (natural protein, S. pombe, UniProt O74191 1-361, looked up)
chain: B2 chain
notes: Fkbp39, S. pombe, SPBC1347.02; pETDuet construct with 6xHis-SUMO and an HRV-3C site, tag not removed; source: E. coli Rosetta (Fkbp39 constructs), purified; used as 6xHis-SUMO-Fkbp39; not shown: 6xHis, N-terminal, kept; SUMO, N-terminal, kept

Data set [1] concerns the molecule itself. Description: mass photometry + SEC; purified Fkbp39 and Fkbp41, oligomeric state; SEC on Superdex 200 Increase 10/300 GL.
The target in the data set “Fkbp41” is B1. Description: pull-down; 'in vitro co-immunoprecipitation': 12 μg each of 6xHis-SUMO-Fkbp39 and Fkbp41, 45 min at 4 °C in 30 mM HEPES-Na pH 7.5-8, 150 mM NaCl, 20 mM imidazole; Ni Sepharose resin, imidazole elution, SDS-PAGE. The conditions noted are these: both partners purified.

For orientation: stoichiometry N means a count of units in the complex or per binding partner. As to B1, the “stoichiometry N” value in data set [1] turned out to be 2.

Turning to B2, the “stoichiometry N” value in data set [1] was found to be 5.

On to B3, for which the binding result in the data set with Fkbp41 was “binds”.
